Measurements reported in patent US20160200782A1 (MOERAE MATRIX, published 2016).

What was measured:
Experiment in all cases: cell-based or functional assay
cKit(h) = cKit(h) (human, UniProt P10721 544-976, limits assumed)
Rsk4(h) = Rsk4(h) (human, UniProt Q9UK32 1-745, limits assumed)
FGFR1(h) = FGFR1(h) (human, UniProt P11362 456-765, limits assumed)
IKKα(h) = biological target: T1, IKKα(h) (human, UniProt O15111 1-745, limits assumed)
T1 sequence (looked up): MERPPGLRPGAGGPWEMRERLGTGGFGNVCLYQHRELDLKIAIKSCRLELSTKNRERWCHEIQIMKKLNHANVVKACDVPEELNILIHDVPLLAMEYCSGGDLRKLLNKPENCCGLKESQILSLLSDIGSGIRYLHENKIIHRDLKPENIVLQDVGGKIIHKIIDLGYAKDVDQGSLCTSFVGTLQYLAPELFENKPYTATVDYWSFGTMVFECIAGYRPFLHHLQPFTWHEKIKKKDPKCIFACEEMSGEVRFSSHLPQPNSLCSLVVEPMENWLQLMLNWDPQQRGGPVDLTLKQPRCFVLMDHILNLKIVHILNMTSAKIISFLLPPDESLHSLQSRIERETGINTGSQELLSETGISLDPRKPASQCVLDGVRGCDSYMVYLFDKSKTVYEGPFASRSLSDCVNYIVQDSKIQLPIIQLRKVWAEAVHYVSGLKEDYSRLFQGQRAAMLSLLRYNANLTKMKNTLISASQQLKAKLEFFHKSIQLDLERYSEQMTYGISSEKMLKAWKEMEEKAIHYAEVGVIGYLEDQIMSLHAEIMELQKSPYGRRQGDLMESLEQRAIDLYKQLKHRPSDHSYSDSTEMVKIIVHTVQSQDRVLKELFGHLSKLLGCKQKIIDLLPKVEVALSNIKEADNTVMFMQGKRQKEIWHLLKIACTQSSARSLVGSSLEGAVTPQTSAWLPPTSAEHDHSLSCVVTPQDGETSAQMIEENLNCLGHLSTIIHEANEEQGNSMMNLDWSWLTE

JAK2(h) = JAK2(h) (human, UniProt O60674 808-1132, limits assumed)
Sequence of JAK2(h) (O60674 808-1132 limits assumed): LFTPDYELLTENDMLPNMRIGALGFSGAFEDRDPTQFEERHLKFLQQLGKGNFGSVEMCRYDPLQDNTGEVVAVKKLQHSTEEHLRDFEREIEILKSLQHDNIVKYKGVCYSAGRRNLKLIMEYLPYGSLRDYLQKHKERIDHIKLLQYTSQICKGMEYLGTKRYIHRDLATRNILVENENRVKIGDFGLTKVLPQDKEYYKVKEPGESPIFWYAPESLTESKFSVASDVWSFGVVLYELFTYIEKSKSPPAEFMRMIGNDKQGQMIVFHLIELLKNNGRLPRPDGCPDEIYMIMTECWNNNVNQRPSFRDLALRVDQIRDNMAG

Fes(h) = Fes(h) (human, UniProt P07332 1-822, limits assumed)
Sequence of Fes(h) (P07332 whole entry): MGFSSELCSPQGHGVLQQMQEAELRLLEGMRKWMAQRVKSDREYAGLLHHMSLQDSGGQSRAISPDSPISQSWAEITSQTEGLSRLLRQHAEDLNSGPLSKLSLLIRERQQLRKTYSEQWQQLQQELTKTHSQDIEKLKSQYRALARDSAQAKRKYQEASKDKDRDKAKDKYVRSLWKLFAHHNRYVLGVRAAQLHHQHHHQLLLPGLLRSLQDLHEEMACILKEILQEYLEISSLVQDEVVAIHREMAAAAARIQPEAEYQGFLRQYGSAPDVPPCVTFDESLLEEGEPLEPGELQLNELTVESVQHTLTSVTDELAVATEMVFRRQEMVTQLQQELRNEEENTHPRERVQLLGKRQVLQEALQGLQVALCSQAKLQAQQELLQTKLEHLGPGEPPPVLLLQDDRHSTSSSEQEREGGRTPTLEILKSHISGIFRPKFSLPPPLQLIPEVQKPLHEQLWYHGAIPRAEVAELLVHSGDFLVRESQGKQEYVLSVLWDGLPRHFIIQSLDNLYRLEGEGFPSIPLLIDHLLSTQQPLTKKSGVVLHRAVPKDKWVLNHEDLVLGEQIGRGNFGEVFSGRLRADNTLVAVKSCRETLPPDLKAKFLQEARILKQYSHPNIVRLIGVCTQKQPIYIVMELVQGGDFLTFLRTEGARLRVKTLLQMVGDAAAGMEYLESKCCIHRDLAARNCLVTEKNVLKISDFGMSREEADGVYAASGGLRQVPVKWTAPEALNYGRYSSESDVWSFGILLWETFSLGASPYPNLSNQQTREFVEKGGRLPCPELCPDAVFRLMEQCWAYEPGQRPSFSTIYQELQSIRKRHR

Lyn(h) = Lyn(h) (human, UniProt P07948 1-512, limits assumed)
Sequence of Lyn(h) (P07948 whole entry): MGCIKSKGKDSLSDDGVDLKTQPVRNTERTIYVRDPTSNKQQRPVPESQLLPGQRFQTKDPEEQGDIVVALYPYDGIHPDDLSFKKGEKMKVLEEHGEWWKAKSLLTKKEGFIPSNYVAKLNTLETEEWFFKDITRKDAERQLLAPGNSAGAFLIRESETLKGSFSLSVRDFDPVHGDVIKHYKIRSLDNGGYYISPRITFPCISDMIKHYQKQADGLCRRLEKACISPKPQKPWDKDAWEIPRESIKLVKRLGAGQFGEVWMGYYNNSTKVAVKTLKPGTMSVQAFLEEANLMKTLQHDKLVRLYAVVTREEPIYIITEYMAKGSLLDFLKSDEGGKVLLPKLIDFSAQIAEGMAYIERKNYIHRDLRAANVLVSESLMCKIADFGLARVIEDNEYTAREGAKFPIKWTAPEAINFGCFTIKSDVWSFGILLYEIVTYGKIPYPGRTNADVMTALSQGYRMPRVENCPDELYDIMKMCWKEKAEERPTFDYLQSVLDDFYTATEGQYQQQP

GCK(h) = biological target: T2, GCK(h) (human, UniProt Q12851 1-820, limits assumed)
T2 sequence (looked up): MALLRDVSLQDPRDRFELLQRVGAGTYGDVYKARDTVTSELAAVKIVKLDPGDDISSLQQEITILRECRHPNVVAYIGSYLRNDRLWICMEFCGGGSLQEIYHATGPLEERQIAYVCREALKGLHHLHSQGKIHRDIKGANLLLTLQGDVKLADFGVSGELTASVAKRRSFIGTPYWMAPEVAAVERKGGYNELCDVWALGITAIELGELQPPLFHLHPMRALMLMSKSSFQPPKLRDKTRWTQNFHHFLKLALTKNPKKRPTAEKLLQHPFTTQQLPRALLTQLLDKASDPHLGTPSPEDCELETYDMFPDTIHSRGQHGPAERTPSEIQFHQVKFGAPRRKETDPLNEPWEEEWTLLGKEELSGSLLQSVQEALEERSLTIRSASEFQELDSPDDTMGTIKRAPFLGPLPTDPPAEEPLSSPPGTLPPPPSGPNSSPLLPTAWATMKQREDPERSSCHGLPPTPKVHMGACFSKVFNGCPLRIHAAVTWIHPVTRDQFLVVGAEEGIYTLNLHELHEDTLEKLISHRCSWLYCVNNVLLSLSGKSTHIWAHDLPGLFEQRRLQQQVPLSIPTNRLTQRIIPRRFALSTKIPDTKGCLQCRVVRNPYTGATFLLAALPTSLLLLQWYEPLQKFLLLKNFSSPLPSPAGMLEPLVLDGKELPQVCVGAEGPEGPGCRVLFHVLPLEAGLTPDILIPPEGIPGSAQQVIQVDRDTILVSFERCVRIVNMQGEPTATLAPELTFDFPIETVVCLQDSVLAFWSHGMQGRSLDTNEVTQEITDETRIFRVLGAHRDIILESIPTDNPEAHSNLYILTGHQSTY

EphA5(h) = biological target: T3, EphA5(h) (human, UniProt P54756 595-1037, limits assumed)
T3 sequence (looked up): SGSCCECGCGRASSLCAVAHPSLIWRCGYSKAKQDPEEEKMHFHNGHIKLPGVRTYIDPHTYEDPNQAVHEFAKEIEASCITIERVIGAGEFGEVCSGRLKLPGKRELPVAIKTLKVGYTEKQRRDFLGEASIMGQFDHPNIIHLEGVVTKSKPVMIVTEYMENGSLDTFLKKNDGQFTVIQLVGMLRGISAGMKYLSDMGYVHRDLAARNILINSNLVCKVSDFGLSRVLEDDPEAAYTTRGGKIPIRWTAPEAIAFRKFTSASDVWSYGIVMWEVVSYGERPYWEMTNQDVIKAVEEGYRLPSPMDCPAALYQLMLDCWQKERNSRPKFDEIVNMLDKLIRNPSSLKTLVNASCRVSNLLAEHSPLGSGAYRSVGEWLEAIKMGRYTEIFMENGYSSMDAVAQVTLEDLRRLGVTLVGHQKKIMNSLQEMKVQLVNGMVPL

Met(M1268T)(h) = Met(M1268T)(h) (human, UniProt P08581-2 974-1408, limits assumed)
Met(Y1248H)(h) = Met(Y1248H)(h) (human, UniProt P08581-2 974-1408, limits assumed)
CK2(h) = CK2(h) (human)

Sequence of Rsk4(h) (Q9UK32 whole entry): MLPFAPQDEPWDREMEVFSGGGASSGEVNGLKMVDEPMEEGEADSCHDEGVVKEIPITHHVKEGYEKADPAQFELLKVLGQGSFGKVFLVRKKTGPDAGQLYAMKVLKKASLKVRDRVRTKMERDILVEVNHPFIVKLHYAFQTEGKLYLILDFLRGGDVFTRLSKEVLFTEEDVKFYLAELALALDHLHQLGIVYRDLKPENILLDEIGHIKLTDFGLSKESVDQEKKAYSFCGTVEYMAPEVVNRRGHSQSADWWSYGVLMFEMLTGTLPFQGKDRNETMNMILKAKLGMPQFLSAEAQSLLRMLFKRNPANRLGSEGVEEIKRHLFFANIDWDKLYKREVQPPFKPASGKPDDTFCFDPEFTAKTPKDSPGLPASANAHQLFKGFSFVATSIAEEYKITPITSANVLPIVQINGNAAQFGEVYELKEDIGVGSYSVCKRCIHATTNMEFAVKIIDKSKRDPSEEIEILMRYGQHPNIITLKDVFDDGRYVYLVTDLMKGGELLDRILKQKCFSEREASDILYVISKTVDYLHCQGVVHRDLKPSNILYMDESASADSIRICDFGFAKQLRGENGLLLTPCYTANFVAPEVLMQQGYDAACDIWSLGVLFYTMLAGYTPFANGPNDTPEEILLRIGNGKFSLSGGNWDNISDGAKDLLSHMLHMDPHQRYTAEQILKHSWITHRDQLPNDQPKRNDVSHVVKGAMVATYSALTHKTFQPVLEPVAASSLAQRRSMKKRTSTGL
Sequence of cKit(h) (P10721 544-976 limits assumed): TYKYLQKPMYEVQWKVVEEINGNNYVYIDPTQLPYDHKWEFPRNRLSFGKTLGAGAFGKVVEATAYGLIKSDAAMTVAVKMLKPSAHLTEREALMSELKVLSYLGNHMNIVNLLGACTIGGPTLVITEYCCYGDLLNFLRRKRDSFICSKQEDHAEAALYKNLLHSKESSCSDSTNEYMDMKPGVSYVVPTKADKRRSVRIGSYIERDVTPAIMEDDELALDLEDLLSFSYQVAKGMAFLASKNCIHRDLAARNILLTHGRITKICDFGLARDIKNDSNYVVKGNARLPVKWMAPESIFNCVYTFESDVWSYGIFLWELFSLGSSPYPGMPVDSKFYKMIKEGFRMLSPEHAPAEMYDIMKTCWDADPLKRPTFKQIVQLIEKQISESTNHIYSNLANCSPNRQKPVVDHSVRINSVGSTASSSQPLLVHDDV
Sequence of FGFR1(h) (P11362 456-765 limits assumed): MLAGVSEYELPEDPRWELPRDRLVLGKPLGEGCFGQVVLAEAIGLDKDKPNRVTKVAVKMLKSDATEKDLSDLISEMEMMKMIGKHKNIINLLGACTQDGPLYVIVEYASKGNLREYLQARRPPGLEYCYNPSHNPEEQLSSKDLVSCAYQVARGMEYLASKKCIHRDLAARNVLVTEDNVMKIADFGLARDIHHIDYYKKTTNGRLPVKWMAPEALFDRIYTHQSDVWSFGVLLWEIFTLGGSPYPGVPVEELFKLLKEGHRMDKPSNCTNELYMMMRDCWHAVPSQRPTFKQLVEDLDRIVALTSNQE

Binder	% activity (cKit(h)) [%]	% activity (Rsk4(h)) [%]	% activity (FGFR1(h)) [%]	% activity (IKKα(h)) [%]	% activity (JAK2(h)) [%]	% activity (Fes(h)) [%]	% activity (Lyn(h)) [%]	% activity (GCK(h)) [%]	% activity (EphA5(h)) [%]	% activity (Met(M1268T)(h)) [%]	% activity (Met(Y1248H)(h)) [%]	% activity (CK2(h)) [%]
FAKLAARLYRKALARQLGVAA [MMI-0300]	53	90	55	93	133	20	69	70	18	255	117	90
KAFAKLAARLYRKALARQLGVAA [MMI-0400]	43	91	59	87	119	16	3	66	24	265	63	101
